Laboratory results published in IntAct's records for PubMed 15143060.

Molecular target: gga1_human GGA1 (UniProt Q9UJY5)
Sequence (Q9UJY5 whole entry): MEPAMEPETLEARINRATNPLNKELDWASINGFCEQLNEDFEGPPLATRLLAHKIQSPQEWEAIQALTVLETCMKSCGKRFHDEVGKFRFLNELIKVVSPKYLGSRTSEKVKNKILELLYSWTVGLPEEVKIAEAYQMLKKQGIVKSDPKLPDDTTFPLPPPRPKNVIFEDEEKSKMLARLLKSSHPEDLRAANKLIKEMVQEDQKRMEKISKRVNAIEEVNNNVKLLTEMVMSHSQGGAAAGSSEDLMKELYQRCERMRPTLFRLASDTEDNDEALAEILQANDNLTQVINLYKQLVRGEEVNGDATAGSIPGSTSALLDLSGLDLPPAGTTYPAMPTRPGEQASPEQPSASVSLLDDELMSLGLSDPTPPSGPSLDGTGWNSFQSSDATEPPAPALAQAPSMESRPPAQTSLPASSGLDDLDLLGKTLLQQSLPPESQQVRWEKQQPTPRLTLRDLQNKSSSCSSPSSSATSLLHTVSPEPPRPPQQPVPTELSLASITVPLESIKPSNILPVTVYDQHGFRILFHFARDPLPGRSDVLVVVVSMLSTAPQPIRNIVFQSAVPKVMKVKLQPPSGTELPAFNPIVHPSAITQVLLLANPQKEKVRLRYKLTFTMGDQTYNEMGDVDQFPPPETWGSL

In the case of “ADP-ribosylation factor 1 (Homo sapiens), P84077 T32N”, the “effect of a mutation on the interaction” value is reported as “decreasing interaction”.
